US20240190989A1 (BEIGENE SWITZERLAND, published 2024)

Key:
Assay in all cases: ELISA-based FcγR binding, luminescence read-out (RLU)
[1] = molecular target: T1, FcγRIIB (UniProt P31994 43-217, limits assumed)
T1 sequence (looked up): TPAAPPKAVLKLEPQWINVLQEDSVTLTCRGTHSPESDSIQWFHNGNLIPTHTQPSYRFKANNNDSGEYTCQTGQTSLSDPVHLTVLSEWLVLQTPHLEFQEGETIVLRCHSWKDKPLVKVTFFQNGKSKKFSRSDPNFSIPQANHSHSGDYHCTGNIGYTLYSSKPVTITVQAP

[2] = molecular target: FcγRIIIB (UniProt O75015 17-200, limits assumed)
[3] = molecular target: FcγRIIIAV158 (UniProt P08637 17-208)
FcγRIIIAV158, sequence (P08637 17-208 F176V): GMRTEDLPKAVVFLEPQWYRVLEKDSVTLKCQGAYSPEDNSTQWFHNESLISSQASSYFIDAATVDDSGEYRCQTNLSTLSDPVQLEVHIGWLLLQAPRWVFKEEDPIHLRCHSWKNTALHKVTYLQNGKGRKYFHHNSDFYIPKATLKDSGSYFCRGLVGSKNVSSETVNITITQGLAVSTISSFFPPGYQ

[4] = molecular target: T2, FcγRIIAR131 (UniProt P12318 34-218)
T2 sequence (looked up): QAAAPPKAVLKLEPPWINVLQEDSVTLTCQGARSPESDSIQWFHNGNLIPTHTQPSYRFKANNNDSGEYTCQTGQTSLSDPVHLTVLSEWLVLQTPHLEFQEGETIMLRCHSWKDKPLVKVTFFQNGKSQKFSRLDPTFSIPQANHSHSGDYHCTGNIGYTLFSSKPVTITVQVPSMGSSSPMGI

[5] = molecular target: FcγRI (UniProt P12314 16-288, limits assumed)
FcγRI, sequence (P12314 16-288 limits assumed): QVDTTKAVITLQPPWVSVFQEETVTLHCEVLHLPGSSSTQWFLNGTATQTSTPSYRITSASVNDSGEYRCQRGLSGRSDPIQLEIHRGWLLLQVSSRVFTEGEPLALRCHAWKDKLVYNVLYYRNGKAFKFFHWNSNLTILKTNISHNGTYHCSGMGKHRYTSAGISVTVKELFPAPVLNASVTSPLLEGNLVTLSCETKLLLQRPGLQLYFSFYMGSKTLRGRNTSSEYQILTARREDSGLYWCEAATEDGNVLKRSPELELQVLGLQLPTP

[6] = molecular target: T3, FcγRIIAH131 (UniProt P12318 34-218)
T3 sequence (looked up): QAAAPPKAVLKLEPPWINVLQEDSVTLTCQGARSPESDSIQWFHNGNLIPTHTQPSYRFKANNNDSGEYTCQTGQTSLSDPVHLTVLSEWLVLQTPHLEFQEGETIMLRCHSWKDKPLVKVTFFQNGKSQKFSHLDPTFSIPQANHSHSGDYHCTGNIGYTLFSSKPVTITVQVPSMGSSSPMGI

Measured: binding result

FcγRIIIB, sequence (O75015 17-200 limits assumed): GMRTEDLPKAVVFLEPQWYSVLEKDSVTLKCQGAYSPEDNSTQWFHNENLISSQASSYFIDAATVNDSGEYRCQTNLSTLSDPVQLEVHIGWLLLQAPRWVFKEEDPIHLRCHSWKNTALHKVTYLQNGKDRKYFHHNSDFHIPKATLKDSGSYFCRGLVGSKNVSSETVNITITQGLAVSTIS

B1: BE-146 (CEAxCD137 multispecific antibody) (bispecific antibody, human IgG1, kappa)
heavy: QVQLVQSGAEVKKPGASVKVSCKASGYIFTSYYLHWVRQAPGQGLEWIGYINPQTGKTSYAQKFQGRVTMTRDTSTSTVYMELSSLRSEDTAVYYCAREYGNYNYPLDYWGQGTLVTVSSASTKGPSVFPLAPSSKSTSGGTAALGCLVKDYFPEPVTVSWNSGALTSGVHTFPAVLQSSGLYSLSSVVTVPSSSLGTQTYICNVNHKPSNTKVDKKVEPKSCDKTHTCPPCPAPPAAGPSVFLFPPKPKDTLMISRTPEVTCVVVDVSHEDPEVKFNWYVDGVEVHNAKTKPREEQYNSTYRVVSVLTVLHQDWLNGKEYKCKVSNKALAAPIEKTISKAKGQPREPQVYTLPPSREEMTKNQVSLTCLVKGFYPSDIAVEWESNGQPENNYKTTPPVLDSDGSFFLYSKLTVDKSRWQQGNVFSCSVMHEALHNHYTQKSLSLSPGKGGGGSEVQLLESGGGLVQPGGSLRLSCAASGFTVSAEDVGWVRQAPGKGLEWVSAILDKGGSTYYAESVKGRFTISRDNAKNTLYLQMSSLRAEDTAVYYCARIVYHAGGGVTFDTRGQGTQVTVSS
light: DIQMTQSPSSLSASVGDRVTITCRASENQYGYLAWYQQKPGKVPKLLIYNYKNLVEGVPSRFSGSGSGTDFTLTISSLQPEDVATYYCQHHLGTPYTFGQGTKVEIKRTVAAPSVFIFPPSDEQLKSGTASVVCLLNNFYPREAKVQWKVDNALQSGNSQESVTEQDSKDSTYSLSSTLTLSKADYEKHKVYACEVTHQGLSSPVTKSFNRGEC
notes: Module ratio 2:2, Fc null version of huIgG1; copies: 2 + 2
no binding (tested: not shown): all assays above
